Consider 2 molecules from article PMC2528196.

For one data set, the target named is Srs2 (Saccharomyces cerevisiae, UniProt P12954 1-1174). As to the kind of experiment: EMSA.
Substrate in the data set “purified protein”: Nc1ncnc2c1ncn2[C@@H]1O[C@H](COP(=O)(O)OP(=O)(O)OP(=O)(O)O)[C@@H](O)[C@H]1O
Description: purified protein. The note with it: saturating 56-mer ssDNA, 37°C, pH 7.6, 7 mM MgCl2, 100 mM NaCl.

B1: forked DNA P1/P2 (dsDNA)
DNA 1: AGAAGGTTTCGAATCAGAGGTAGGTGCCCGGCCTCCAACTTGCCGTATTCCTGGT
DNA 2: ACCAGGAATACGGCAAGTTGGAGGCCGGGCTGGATGGAGACTAAGCTTTGGAAGT
Take B1: the binding result with Srs2 is recorded as “binds”.

B2: Srs2 (Saccharomyces cerevisiae S288C) (protein)
chain: MSSNNDLWLHLVSQLNTQQRAAALFDYTRGLQVIAGPGTGKTKVLTSRVAYLILHHHIHPRDIIVTTFTNKAANEMKERLQEMLRGAGVNISELLIGTFHSICLKILYRFGHLVDLQKDWRIIDEKEIDVILDDMIEKVPDQIRDYASSITRKVNLCMPSKNGDEWTIHPKLIKKQISKLKSNAILPEEYILDSNHDAALGYFYQIYQSELSKKNTLDFDDLLMYTFRLLTRVRVLSNIKHVLVDEFQDTNGIQLDLMFLFAKGNHHLSRGMTIVGDPDQSIYAFRNALAHNFLEMGRKCPIEYSTIILVENYRSSQKILNTSEILITQQNKGRQNRAPLRAQFDLDFPPVYMNFPAYFLEAPSLVRELLYLKALPNLFTFNDFAILVRQRRQIKRIESALIEHRIPYKIIRGHSFWDSKETRAMLNLLKLIFSPNDKHAILASLLYPARGLGPATGEKIKNALDTLATDVSCFQILKDISSKKIMLDIPTKGRSVIADFISMIENCQLLLQSTLLGGLSDLFDKLYELSGLKYEYLYKDGKKKNDQLEKSEPNLLNARHKNIELLKNYFLALLSKSESSDKEKNEAIKAATDEAEPIENKVITPKEYLRNFFNSLSLHSDAAEEEESESNKDAKIKREKNGFVTISTIHGAKGLEWPVVFIPGCEEGIIPCVFNDDKKDESEEDEEEDQENSKKDASPKKTRVLSVEDSIDEERRMFFVAQTRAKYLLYLSNTVTVEDVDRPRIASRFLTTDLIKAMSDSQKLFESTNSIKKLYRILNKKPPAEDDKLFSLDQLRKDYNQFIENRRERMIWQGIQMNDVYGIQLSRNKLLGSVSDFTSAADQLRLETQNSIFPQKKLIEKSRPSKINGNYAPKSRVKSPEKRYAPETTSFHSPTKKKVYAPQYVSTTNVPSRQEFHSSTGKNIPFLRREDRSITDISPRSSTRSLKGASPNKTSHMSDDLMRPSPTRKDKVTRNIHFATAGTFRIETQSNVDELHPPEYSNKSGQSLTSSEFSGFSSACSNSDQPTNLIEDINNELDLSDEELLNDISIERRRELLGSKKTKKIKPKTRNRKSKRGDKVKVEEVIDLKSEFEEDDSRNTTAAELLHNPDDTTVDNRPIISNAKFLADAAMKKTQKFSKKVKNEPASSQMDIFSQLSRAKKKSKLNNGEIIVID
As for B2, in the data set “purified protein”, the Michaelis-Menten constant (Km) is 143 µM and the catalytic constant (kcat) turned out to be 55.3 s⁻¹.
